Data reported in patent publication US20160369009A1 (published 2016).

How the values were obtained:
human kallikrein-2 (hK2) [1] = molecular target: T1, human kallikrein-2 (hK2) (human, UniProt P20151 25-261); assay: SPR, Biacore 3000, hK2 amine-coupled on CM4 chip, channel fc2, 50 nM antibody, 480 min dissociation
T1 construct: The mature protein is said to be underlined, but the underlining is not recoverable from the text; In the assay hK2 was amine-coupled to a CM4 chip; also called human glandular kallikrein 2; antigen hK2
T1 sequence (P20151 25-261 limits assumed): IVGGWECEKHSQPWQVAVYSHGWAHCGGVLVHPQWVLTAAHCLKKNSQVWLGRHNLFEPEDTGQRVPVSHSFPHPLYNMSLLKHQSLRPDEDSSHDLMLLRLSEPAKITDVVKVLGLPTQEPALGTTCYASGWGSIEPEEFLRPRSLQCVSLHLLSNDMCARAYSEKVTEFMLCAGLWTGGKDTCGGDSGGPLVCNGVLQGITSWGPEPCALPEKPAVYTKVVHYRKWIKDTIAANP
Procedure: (§1) All binding experiments were performed on CM4 chip on a Biacore 3000 instrument. The chip and all the reagents needed for activation, immobilization, deactivation, binding and regeneration were purchased from GE Healthcare and used according to the guidelines from the manufacturer.
(§2) The dissociation phase data was fitted and the dissociation rate constants (koff) were estimated (see Table 2).

human kallikrein-2 (hK2) [2] = molecular target: T1, human kallikrein-2 (hK2); assay: SPR, Biacore 3000, hK2 on CM4 chip, mean of channels fc2 and fc3
Procedure: as §1, §2

human kallikrein-2 (hK2) [3] = molecular target: T1, human kallikrein-2 (hK2); assay: SPR, Biacore 3000, hK2 amine-coupled on CM4 chip, channel fc3, 50 nM antibody, 480 min dissociation
Procedure: as §1, §2

human kallikrein-2 (hK2) [4] = molecular target: T1, human kallikrein-2 (hK2); assay: SPR, Biacore 3000, hK2 on CM4 chip, antibody 6.25-100 nM, mean of 18/18 fitted experiments
Procedure: as §1
(§3) In order to estimate the association rate constants, the dissociation rate constants (Table 2) were used in the fitted equations.
(§4) All fitted data was used in order to calculate an average value of the association rate constant and the standard deviation for each antibody (see Table 3).

human kallikrein-2 (hK2) [5] = molecular target: T1, human kallikrein-2 (hK2); assay: SPR, Biacore 3000, hK2 on CM4 chip, mean KD from kon and koff
Procedure: as §1

human kallikrein-2 (hK2) [6] = molecular target: T1, human kallikrein-2 (hK2); assay: SPR, Biacore 3000, hK2 on CM4 chip, antibody 6.25-100 nM, mean of 17/18 fitted experiments
Procedure: as §1, §3, §4

human kallikrein-2 (hK2) [7] = molecular target: T1, human kallikrein-2 (hK2); assay: SPR, Biacore 3000, hK2 on CM4 chip, antibody 6.25-100 nM, mean of 15/18 fitted experiments
Procedure: as §1, §3, §4

| Binder | koff (human kallikrein-2 (hK2) [1]) [s⁻¹] | koff (human kallikrein-2 (hK2) [2]) [s⁻¹] | koff (human kallikrein-2 (hK2) [3]) [s⁻¹] | kon (human kallikrein-2 (hK2) [4]) [M⁻¹ s⁻¹] | Kd (human kallikrein-2 (hK2) [5]) [nM] | kon (human kallikrein-2 (hK2) [6]) [M⁻¹ s⁻¹] | kon (human kallikrein-2 (hK2) [7]) [M⁻¹ s⁻¹] |
| --- | --- | --- | --- | --- | --- | --- | --- |
| h11B6-DFO (humanised 11B6 conjugated with deferoxamine) (antibody, human IgG1, kappa, V domains shown, DFO (deferoxamine) chelator coupled; residues and chain not stated, This is the h11B6 IgG1/kappa carrying DFO; also called h1166-DFO; DFO-h11B6) VH: QVQLQESGPGLVKPSDTLSLTCAVSGNSITSDYAWNWIRQPPGKGLEWIGYISYSGSTTYNPSLKSRVTMSRDTSKNQFSLKLSSVTAVDTAVYYCATGYYYGSGFWGQGTLVTVSS VL: DIVLTQSPDSLAVSLGERATINCKASESVEYFGTSLMHWYQQKPGQPPKLLIYAASNRESGVPDRFSGSGSGTDFTLTISSLQAEDVAVYYCQQTRKVPYTFGQGTKLEIKR | 5.8e-05 | 5.7e-05 | 5.5e-05 | 111000 | 0.54 |  |  |
| h11B6-DTPA (humanised 11B6 conjugated with DTPA chelator) (antibody, V domains shown, DTPA chelator coupled; residues and chain not stated, This is the h11B6 IgG1/kappa carrying a chelator; also called h1166-DTPA; H1166-DTPA) VH: QVQLQESGPGLVKPSDTLSLTCAVSGNSITSDYAWNWIRQPPGKGLEWIGYISYSGSTTYNPSLKSRVTMSRDTSKNQFSLKLSSVTAVDTAVYYCATGYYYGSGFWGQGTLVTVSS VL: DIVLTQSPDSLAVSLGERATINCKASESVEYFGTSLMHWYQQKPGQPPKLLIYAASNRESGVPDRFSGSGSGTDFTLTISSLQAEDVAVYYCQQTRKVPYTFGQGTKLEIKR | 6.3e-05 | 0.000127 | 0.000191 |  | 0.93 | 182000 |  |
| humanised 11B6 antibody (h11B6), IgG1/kappa (antibody, V domains shown, Expressed transiently in HEK293 cells; also called h1186) VH: QVQLQESGPGLVKPSDTLSLTCAVSGNSITSDYAWNWIRQPPGKGLEWIGYISYSGSTTYNPSLKSRVTMSRDTSKNQFSLKLSSVTAVDTAVYYCATGYYYGSGFWGQGTLVTVSS VL: DIVLTQSPDSLAVSLGERATINCKASESVEYFGTSLMHWYQQKPGQPPKLLIYAASNRESGVPDRFSGSGSGTDFTLTISSLQAEDVAVYYCQQTRKVPYTFGQGTKLEIKR | 6.4e-05 | 6.7e-05 | 6.9e-05 |  | 0.65 |  | 117000 |
| murine 11B6 antibody (m11B6), parent murine anti-hK2 monoclonal antibody (antibody, mouse IgG1, kappa, V domains shown, Whole murine IgG obtained from the University of Turku; also called mAb 11B6; ml 1B6) VH: DVQLQESGPGLVKPSQSLSLTCTVTGNSITSDYAWNWIRQFPGNRLEWMGYISYSGSTTYSPSLKSRFSITRDTSKNQFFLQLNSVTPEDTATYFCATGYYYGSGFWGQGTLVTVSS VL: DIVLTQSPASLAVSLGQRATISCRASESVEYFGTSLMHWYRQKPGQPPKLLIYAASNVESGVPARFSGSGSGTDFSLNIQPVEEDDFSMYFCQQTRKVPYTFGGGTKLEIKR | 1.9e-05 | 3.4e-05 | 4.9e-05 | 248000 | 0.19 |  |  |
